Laboratory results as given in PMC3790820, “A Rapid and High-Throughput Quantitation Assay of the Nuclear Factor κB Activity Using Fluorescence Correlation Spectroscopy in the Setting of Clinical Laboratories”.

Key:
NF-kB p50 (hr-p50) [1] = target: T1, NF-kB p50 (hr-p50) (human (recombinant), UniProt P19838 1-433); test: competition (FCS); 868.0 us at 1 nM, 495.8 us at 50 nM competitor; TAMRA probe N1; 50 mM Tris-HCl pH 7.5, 250 mM NaCl, 1 mM EDTA, 2.5 mM DTT, 10% glycerol, 1 nM TAMRA probe, 1 ug poly(dI-dC), room temperature, 10 min; conditions: protein: commercial; chain copies: 2; hairpin, 22 bp stem, AAAA loop
T1 sequence (P19838 1-433): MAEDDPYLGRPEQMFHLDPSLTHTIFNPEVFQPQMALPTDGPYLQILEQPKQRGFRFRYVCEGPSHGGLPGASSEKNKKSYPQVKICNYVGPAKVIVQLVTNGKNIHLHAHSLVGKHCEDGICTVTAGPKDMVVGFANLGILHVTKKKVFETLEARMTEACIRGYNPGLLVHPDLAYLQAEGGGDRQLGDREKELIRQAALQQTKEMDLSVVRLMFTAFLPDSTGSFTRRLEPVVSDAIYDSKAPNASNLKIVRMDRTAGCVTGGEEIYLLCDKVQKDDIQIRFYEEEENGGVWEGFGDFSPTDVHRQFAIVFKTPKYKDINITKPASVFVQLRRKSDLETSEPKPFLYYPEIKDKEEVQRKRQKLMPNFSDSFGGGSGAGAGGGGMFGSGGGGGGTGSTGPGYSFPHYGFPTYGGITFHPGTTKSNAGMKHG

NF-kB p50 (hr-p50) [2] = target: T1, NF-kB p50 (hr-p50); test: competition (FCS); little effect at 1 and 50 nM competitor; TAMRA probe N1; 50 mM Tris-HCl pH 7.5, 250 mM NaCl, 1 mM EDTA, 2.5 mM DTT, 10% glycerol, 1 nM TAMRA probe, 1 ug poly(dI-dC), room temperature, 10 min; conditions: protein: commercial; chain copies: 2; hairpin, 21 bp stem, AAAA loop

Binder	binding result (NF-kB p50 (hr-p50) [1])	binding result (NF-kB p50 (hr-p50) [2])
AGTTGAGGGGACTTTCCCAGGCAAAAGCCTGGGAAAGTCCCCTCAACT (structured_DNA) [wild-type competitor stem-loop]	binds	–
CAGGCGCGTTTTGACCATCTTAAAAAAGATGGTCAAAACGCGCCTG (structured_DNA) [nonspecific competitor stem-loop]	–	no binding
